Experimental data taken from US20120220489A1.

What was measured:
[1] = target: ERK1 (p42) active (phospho), human, Active Motif 31 152 (human) (UniProt P27361); assay: RPA, normal assay
[2] = target: ERK1 (p44) active (GST tagged), human, Invitrogen PV 3311 (human) (UniProt P27361); assay: RPA, normal assay
[3] = target: ERK1 (p44) inactive (GST tagged), human, Invitrogen PV 3312 (human) (UniProt P27361); assay: RPA, normal assay
[4] = target: ERK1 (p44), human, Cell Signaling Technology 7416 (human) (UniProt P27361); assay: RPA, normal assay
[5] = target: ERK2 (p42), human, Biosource PHO 0104 (human) (UniProt P28482); assay: RPA, normal assay
Sequence of UniProt P28482 (P28482 2-360 limits assumed): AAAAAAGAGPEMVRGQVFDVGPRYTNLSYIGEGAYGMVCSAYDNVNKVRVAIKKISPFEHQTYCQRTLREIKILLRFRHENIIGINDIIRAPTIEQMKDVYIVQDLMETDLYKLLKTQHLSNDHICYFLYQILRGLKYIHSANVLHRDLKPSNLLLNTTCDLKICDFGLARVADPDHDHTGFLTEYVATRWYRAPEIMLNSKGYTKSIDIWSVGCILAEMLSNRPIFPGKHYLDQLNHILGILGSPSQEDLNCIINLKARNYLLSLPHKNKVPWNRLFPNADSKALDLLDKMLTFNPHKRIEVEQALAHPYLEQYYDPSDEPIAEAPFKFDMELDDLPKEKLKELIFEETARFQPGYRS

[6] = target: Erk1-BSA 2.7x peptide-protein conjugate (human; bovine); assay: RPA, normal assay
Sequence of Erk1-BSA 2.7x peptide-protein conjugate (human; bovine) (peptide, as listed by the source limits assumed, chain 1 of 2): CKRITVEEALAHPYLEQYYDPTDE
Sequence of Erk1-BSA 2.7x peptide-protein conjugate (human; bovine) (P02769 25-607 limits assumed, chain 2 of 2): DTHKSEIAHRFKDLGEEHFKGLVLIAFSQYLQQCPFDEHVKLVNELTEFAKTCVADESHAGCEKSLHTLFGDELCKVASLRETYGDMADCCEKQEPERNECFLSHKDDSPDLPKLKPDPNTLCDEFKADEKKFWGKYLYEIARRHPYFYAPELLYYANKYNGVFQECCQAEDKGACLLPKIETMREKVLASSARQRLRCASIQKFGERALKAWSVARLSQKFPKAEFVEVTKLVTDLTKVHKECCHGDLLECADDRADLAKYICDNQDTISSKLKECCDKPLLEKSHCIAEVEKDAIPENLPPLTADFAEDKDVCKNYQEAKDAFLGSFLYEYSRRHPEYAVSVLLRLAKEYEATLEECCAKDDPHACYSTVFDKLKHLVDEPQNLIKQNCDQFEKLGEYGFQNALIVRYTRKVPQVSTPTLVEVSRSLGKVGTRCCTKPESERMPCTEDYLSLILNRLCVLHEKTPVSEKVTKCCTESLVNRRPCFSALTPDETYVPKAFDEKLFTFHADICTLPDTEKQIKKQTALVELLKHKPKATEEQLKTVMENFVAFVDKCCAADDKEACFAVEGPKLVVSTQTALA

[7] = target: Histone H3 recombinant protein, calf, Roche 11 034 758 001 (calf) (UniProt P68432); assay: RPA, normal assay
[8] = target: Histone H3-BSA 2.7x peptide-protein conjugate (bovine); assay: RPA, normal assay
Sequence of Histone H3-BSA 2.7x peptide-protein conjugate (bovine) (P02769 25-607 limits assumed): as the sequence (P02769 25-607 limits assumed, chain 2 of 2) above

[9] = target: pRb recombinant protein, human, Active Motif 31 128 (human) (UniProt P06400); assay: RPA, normal assay
Sequence of UniProt P06400 (P06400 whole entry): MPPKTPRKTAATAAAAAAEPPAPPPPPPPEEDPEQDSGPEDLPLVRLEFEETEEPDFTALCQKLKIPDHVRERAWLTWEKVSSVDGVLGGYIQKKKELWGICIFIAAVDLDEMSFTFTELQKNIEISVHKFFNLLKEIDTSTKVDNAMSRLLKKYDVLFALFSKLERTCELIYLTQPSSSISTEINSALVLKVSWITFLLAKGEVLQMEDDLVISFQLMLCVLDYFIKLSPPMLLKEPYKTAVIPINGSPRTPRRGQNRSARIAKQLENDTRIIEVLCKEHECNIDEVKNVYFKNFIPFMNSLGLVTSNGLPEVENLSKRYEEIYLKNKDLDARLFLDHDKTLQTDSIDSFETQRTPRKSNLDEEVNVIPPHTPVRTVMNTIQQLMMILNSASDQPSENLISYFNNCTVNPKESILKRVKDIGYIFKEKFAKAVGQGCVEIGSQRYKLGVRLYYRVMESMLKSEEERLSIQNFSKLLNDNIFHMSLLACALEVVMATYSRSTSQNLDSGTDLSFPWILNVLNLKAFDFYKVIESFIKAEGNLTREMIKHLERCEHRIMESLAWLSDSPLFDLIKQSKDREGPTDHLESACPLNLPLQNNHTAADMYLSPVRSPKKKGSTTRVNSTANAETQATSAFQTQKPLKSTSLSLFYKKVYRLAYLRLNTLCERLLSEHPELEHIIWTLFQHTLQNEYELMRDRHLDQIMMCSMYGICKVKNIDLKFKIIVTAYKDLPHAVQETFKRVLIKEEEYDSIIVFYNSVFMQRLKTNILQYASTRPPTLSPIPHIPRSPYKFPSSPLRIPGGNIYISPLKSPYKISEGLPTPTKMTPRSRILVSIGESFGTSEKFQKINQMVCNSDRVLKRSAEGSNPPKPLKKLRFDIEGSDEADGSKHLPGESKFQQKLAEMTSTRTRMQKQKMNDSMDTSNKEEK

[10] = target: pRb-BSA 1x peptide-protein conjugate (bovine); assay: RPA, normal assay
Sequence of pRb-BSA 1x peptide-protein conjugate (bovine) (P02769 25-607 limits assumed): as the sequence (P02769 25-607 limits assumed, chain 2 of 2) above

[11] = target: ERK1 (p44) active (GST tagged), human, Invitrogen PV 3311 (human) (UniProt P27361); assay: RPA standard curves, mean of duplicate assays
[12] = target: ERK1 (p42) active (phospho), human, Active Motif 31 152 (human) (UniProt P27361); assay: RPA, competition: +recombinant protein 10 nM (not named)
[13] = target: ERK1 (p44) active (GST tagged), human, Invitrogen PV 3311 (human) (UniProt P27361); assay: as above
[14] = target: ERK1 (p44) inactive (GST tagged), human, Invitrogen PV 3312 (human) (UniProt P27361); assay: as above
[15] = target: ERK1 (p44), human, Cell Signaling Technology 7416 (human) (UniProt P27361); assay: as above
[16] = target: ERK2 (p42), human, Biosource PHO 0104 (human) (UniProt P28482); assay: as above
[17] = target: Erk1-BSA 2.7x peptide-protein conjugate (human; bovine); assay: as above
[18] = target: Histone H3 recombinant protein, calf, Roche 11 034 758 001 (calf) (UniProt P68432); assay: as above
[19] = target: Histone H3 recombinant protein, human, Upstate 14-494 (human) (UniProt P68431); assay: as above
[20] = target: Histone H3-BSA 2.7x peptide-protein conjugate (bovine); assay: as above
[21] = target: pErk1/2-BSA 2.7x peptide-protein conjugate (human; bovine); assay: as above
Sequence of pErk1/2-BSA 2.7x peptide-protein conjugate (human; bovine) (P02769 25-607 limits assumed): as the sequence (P02769 25-607 limits assumed, chain 2 of 2) above

[22] = target: pRb recombinant protein, human, Active Motif 31 128 (human) (UniProt P06400); assay: as above
[23] = target: pRb-BSA 1x peptide-protein conjugate (bovine); assay: as above
[24] = target: ERK1 (p42) active (phospho), human, Active Motif 31 152 (human) (UniProt P27361); assay: RPA, competition: +recombinant protein 100 nM (not named)
[25] = target: ERK1 (p44) active (GST tagged), human, Invitrogen PV 3311 (human) (UniProt P27361); assay: as above
[26] = target: ERK1 (p44) inactive (GST tagged), human, Invitrogen PV 3312 (human) (UniProt P27361); assay: as above
[27] = target: ERK1 (p44), human, Cell Signaling Technology 7416 (human) (UniProt P27361); assay: as above
[28] = target: ERK2 (p42), human, Biosource PHO 0104 (human) (UniProt P28482); assay: as above
[29] = target: Erk1-BSA 2.7x peptide-protein conjugate (human; bovine); assay: as above
[30] = target: Histone H3 recombinant protein, calf, Roche 11 034 758 001 (calf) (UniProt P68432); assay: as above
[31] = target: Histone H3 recombinant protein, human, Upstate 14-494 (human) (UniProt P68431); assay: as above
[32] = target: Histone H3-BSA 2.7x peptide-protein conjugate (bovine); assay: as above
[33] = target: pErk1/2-BSA 2.7x peptide-protein conjugate (human; bovine); assay: as above
[34] = target: pRb recombinant protein, human, Active Motif 31 128 (human) (UniProt P06400); assay: as above
[35] = target: pRb-BSA 1x peptide-protein conjugate (bovine); assay: as above
[36] = target: ERK1 (p44) active (GST tagged), human, Invitrogen PV 3311 (human) (UniProt P27361); assay: RPA standard curve, assay 1, LOD back-calculated from one-site fit
[37] = target: ERK1 (p44) active (GST tagged), human, Invitrogen PV 3311 (human) (UniProt P27361); assay: RPA standard curve, assay 2, LOD back-calculated from one-site fit
[38] = target: Histone H3 recombinant protein, human, Upstate 14-494 (human) (UniProt P68431); assay: RPA, normal assay

Row | Substance | maximum standard curve signal [1] | maximum standard curve signal [2] | maximum standard curve signal [3] | maximum standard curve signal [4] | maximum standard curve signal [5] | maximum standard curve signal [6] | maximum standard curve signal [7] | maximum standard curve signal [8] | maximum standard curve signal [9] | maximum standard curve signal [10] | mean LOD [11] | maximum standard curve signal [12] | maximum standard curve signal [13] | maximum standard curve signal [14] | maximum standard curve signal [15] | maximum standard curve signal [16] | maximum standard curve signal [17] | maximum standard curve signal [18] | maximum standard curve signal [19] | maximum standard curve signal [20] | other results
1 | p44/42 MAPK (Erk1/2) antibody, Biosource 44-654G | 1.17 RFI | 10.4 RFI | 10.9 RFI | 0.28 RFI | 3.57 RFI | 8.24 RFI | 0.02 RFI | 0.04 RFI | 0.02 RFI | 0.03 RFI | 0.044 nM | 0.31 RFI | 3.88 RFI | 5.17 RFI | 0.15 RFI | 0.9 RFI | 7.88 RFI | 0.07 RFI | 0.09 RFI | 0.13 RFI | maximum standard curve signal [21]: 0.08 RFI; maximum standard curve signal [22]: 0.11 RFI; maximum standard curve signal [23]: 0.1 RFI; maximum standard curve signal [24]: 0.15 RFI; maximum standard curve signal [25]: 0.32 RFI; maximum standard curve signal [26]: 0.38 RFI; maximum standard curve signal [27]: 0.16 RFI; maximum standard curve signal [28]: 0.18 RFI; maximum standard curve signal [29]: 5.69 RFI; maximum standard curve signal [30]: 0.15 RFI; maximum standard curve signal [31]: 0.16 RFI; maximum standard curve signal [32]: 0.22 RFI; maximum standard curve signal [33]: 0.14 RFI; maximum standard curve signal [34]: 0.17 RFI; maximum standard curve signal [35]: 0.16 RFI; LOD [36]: 0.04 nM; LOD [37]: 0.047 nM
2 | Histone H3 antibody, Abcam ab1791 |  |  | 0.02 RFI |  |  | 0.01 RFI | 0.43 RFI | 5.38 RFI |  |  |  | 2.4 RFI | 2.2 RFI | 2.54 RFI | 2.19 RFI | 2.3 RFI | 2.8 RFI | 2.5 RFI | 3.16 RFI | 3.93 RFI | maximum standard curve signal [38]: 11.2 RFI; maximum standard curve signal [21]: 2.57 RFI; maximum standard curve signal [22]: 2.77 RFI; maximum standard curve signal [23]: 2.57 RFI; maximum standard curve signal [24]: 1.87 RFI; maximum standard curve signal [25]: 1.37 RFI; maximum standard curve signal [26]: 1.32 RFI; maximum standard curve signal [27]: 1.8 RFI; maximum standard curve signal [28]: 1.56 RFI; maximum standard curve signal [29]: 1.42 RFI; maximum standard curve signal [30]: 2.56 RFI; maximum standard curve signal [31]: 2.09 RFI; maximum standard curve signal [32]: 1.68 RFI; maximum standard curve signal [33]: 1.81 RFI; maximum standard curve signal [34]: 2.28 RFI; maximum standard curve signal [35]: 2.46 RFI
3 | p44/42 MAPK phospho (pERK1/2) Thr202/Tyr204 antibody, Cell Signaling Technology #9101 | 0.19 RFI | 1.66 RFI | 0.23 RFI | 0.04 RFI | 0.01 RFI | 0.02 RFI | 0.01 RFI | 0.11 RFI | 0.01 RFI | 0.01 RFI | 0.055 nM |  |  |  |  |  |  |  |  |  | maximum standard curve signal [38]: 0.01 RFI; LOD [36]: 0.058 nM; LOD [37]: 0.052 nM
